Assay results from publication PMC7089611 (Febs Letters, 2012).
Where “and” joins values, the source holds several entries; their conditions need not be identical. Equal values may be shown once. Read-outs that look alike come from different tables or passages of the source.

What was measured:
AUC [1] = biological target: the molecule itself; assay: AUC
AUC [2] = biological target: the molecule itself; assay: AUC; remark: listed apart in the source
AUC [3] = biological target: the molecule itself; assay: AUC; remark: listed apart in the source
[4] = type: physicochemical; conditions: CD at 220 nm, protein 7 μM, 50 mM Tris–HCl pH 7.5, 150 mM NaCl, 0.1% β‐mercaptoethanol
[5] = Secondary structural content by CD spectroscopy; type: physicochemical; conditions: 25 °C, protein 5 μM, 50 mM Tris–HCl pH 7.5, 150 mM NaCl, 0.1% β‐mercaptoethanol, CDSSTR

B1: HCoV‐229E nucleocapsid (N) protein C‐terminal domain truncation N245–370 (domain or fragment)
chain: QKPRWKRQPNDDVTSNVTQCFGPRDLDHNFGSAGVVANGVKAKGYPQFAELVPSTAAMLFDSHIVSKESGNTVVLTFTTRVTVPKDHPHLGKFLEELNAFTREMQQHPLLNPSALEFNPSQTSPAT
Kd (AUC [1]): 177 µM | stoichiometry N (AUC [1]): 2 and 4

B2: HCoV‐229E nucleocapsid (N) protein C‐terminal domain N245–389 (domain or fragment)
chain: QKPRWKRQPNDDVTSNVTQCFGPRDLDHNFGSAGVVANGVKAKGYPQFAELVPSTAAMLFDSHIVSKESGNTVVLTFTTRVTVPKDHPHLGKFLEELNAFTREMQQHPLLNPSALEFNPSQTSPATAEPVRDEVSIETDIIDEVN
Kd (AUC [1]): 3.5 µM | Kd (AUC [2]): ~6.1 µM | Kd (AUC [3]): ~9.7 µM

B3: HCoV‐229E nucleocapsid (N) protein C‐terminal domain truncation N245–382 (domain or fragment)
chain: QKPRWKRQPNDDVTSNVTQCFGPRDLDHNFGSAGVVANGVKAKGYPQFAELVPSTAAMLFDSHIVSKESGNTVVLTFTTRVTVPKDHPHLGKFLEELNAFTREMQQHPLLNPSALEFNPSQTSPATAEPVRDEVSIET
Kd (AUC [1]): 3.83 µM

B4: HCoV‐229E nucleocapsid (N) protein C‐terminal domain truncation N245–350 (domain or fragment)
chain: QKPRWKRQPNDDVTSNVTQCFGPRDLDHNFGSAGVVANGVKAKGYPQFAELVPSTAAMLFDSHIVSKESGNTVVLTFTTRVTVPKDHPHLGKFLEELNAFTREMQQ
Kd (AUC [1]): 256 µM | stoichiometry N (AUC [1]): 2 and 4

B5: N245–350: truncated C‐terminal domain of the HCoV‐229E N protein, dimeric C‐terminal structural domain (protein)
chain: B4 chain
modifications: left off: His6, C-terminal, state not stated
melting temperature (Tm) [4]: 35.5 °C | Disordered (random coil) content [5]: ~15% | Sheet content [5]: ~22% | Turn content [5]: ~12%

B6: HCoV‐229E nucleocapsid (N) protein C‐terminal domain truncation N245–376 (domain or fragment)
chain: QKPRWKRQPNDDVTSNVTQCFGPRDLDHNFGSAGVVANGVKAKGYPQFAELVPSTAAMLFDSHIVSKESGNTVVLTFTTRVTVPKDHPHLGKFLEELNAFTREMQQHPLLNPSALEFNPSQTSPATAEPVRD
Kd (AUC [1]): 159 µM | stoichiometry N (AUC [1]): 4 and 2
